The data set concerns the molecule itself. Briefly: fluorescence correlation spectroscopy (FCS) with molecular brightness analysis; living transfected HEK293 cells, upper plasma membrane centred in the confocal volume; 23 °C, HEPES-buffered MEM without phenol red; 100 s (10 x 10 s); brightness compared with CD-86/eGFP (monomer) and CD-86/eGFP/eGFP (tandem, dimer) controls.

B1: full-length human ZIP4 tagged with eGFP (hZIP4/eGFP) (natural protein, UniProt Q6P5W5 23-647, looked up)
chain: SPPAGLLSLLTSGQGALDQEALGGLLNTLADRVHCANGPCGKCLSVEDALGLGEPEGSGLPPGPVLEARYVARLSAAAVLYLSNPEGTCEDARAGLWASHADHLLALLESPKALTPGLSWLLQRMQARAAGQTPKMACVDIPQLLEEAVGAGAPGSAGGVLAALLDHVRSGSCFHALPSPQYFVDFVFQQHSSEVPMTLAELSALMQRLGVGREAHSDHSHRHRGASSRDPVPLISSSNSSSVWDTVCLSARDVMAAYGLSEQAGVTPEAWAQLSPALLQQQLSGACTSQSRPPVQDQLSQSERYLYGSLATLLICLCAVFGLLLLTCTGCRGVTHYILQTFLSLAVGAVTGDAVLHLTPKVLGLHTHSEEGLSPQPTWRLLAMLAGLYAFFLFENLFNLLLPRDPEDLEDGPCGHSSHSHGGHSHGVSLQLAPSELRQPKPPHEGSRADLVAEESPELLNPEPRRLSPELRLLPYMITLGDAVHNFADGLAVGAAFASSWKTGLATSLAVFCHELPHELGDFAALLHAGLSVRQALLLNLASALTAFAGLYVALAVGVSEESEAWILAVATGLFLYVALCDMLPAMLKVRDPRPWLLFLLHNVGLLGGWTVLLLLSLYEDDITF
notes: human ZIP4 zinc transporter, full-length gene, residues 1-647; also called full-length hZIP4/eGFP; full-hZIP4/eGFP; source: HEK293 cells (HEK293T, ATCC CRL-3216), transiently transfected with 50 ng pcDNA3.1 plasmid, measured in living cells; not shown: eGFP (monomeric, A206K), C-terminal, kept
On to B1, for which the “stoichiometry N” value was determined as 2.

B2: truncated human ZIP4 (without ECD) tagged with eGFP (truncated hZIP4/eGFP) (domain or fragment, UniProt Q6P5W5 328-647, looked up)
chain: LYGSLATLLICLCAVFGLLLLTCTGCRGVTHYILQTFLSLAVGAVTGDAVLHLTPKVLGLHTHSEEGLSPQPTWRLLAMLAGLYAFFLFENLFNLLLPRDPEDLEDGPCGHSSHSHGGHSHGVSLQLAPSELRQPKPPHEGSRADLVAEESPELLNPEPRRLSPELRLLPYMITLGDAVHNFADGLAVGAAFASSWKTGLATSLAVFCHELPHELGDFAALLHAGLSVRQALLLNLASALTAFAGLYVALAVGVSEESEAWILAVATGLFLYVALCDMLPAMLKVRDPRPWLLFLLHNVGLLGGWTVLLLLSLYEDDITF
notes: human ZIP4 zinc transporter without the N-terminal extracellular domain (residues 1-327 removed); the eight transmembrane domains, residues 328-647; also called eGFP-tagged truncated ZIP4; hZIP4 lacking the ECD; source: HEK293 cells (HEK293T, ATCC CRL-3216), transiently transfected with 50 ng pcDNA3.1 plasmid, measured in living cells; not shown: eGFP (monomeric, A206K), C-terminal, kept
For B2, the “stoichiometry N” value came out at 2.

The values above are taken from paper PMC9727157, “The transmembrane domains mediate oligomerization of the human ZIP4 transporter in vivo” (Scientific Reports, 2022).
